The record followed here is the nanobody polyreactivity screen of Harvey et al. (2022).

This series in a line: yeast display, Sf9 membrane polyspecificity reagent, FACS + sequencing; frameworks hold sequencing errors. The gist of the method:
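A synthetic nanobody library was expressed on Saccharomyces cerevisiae BJ5465 by galactose induction for 36–48 hours. The library was stained for 1 hour at 4 °C with 10% biotinylated, detergent-solubilized Sf9 membrane reagent and enriched with streptavidin microbeads before FACS. Low and high (top ~1%) gates were set on anti-HA fluorescence for expression and streptavidin fluorescence for reagent binding, and each polyreactivity label reflects the gate of origin.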
As for “QVQLVESGGGLVQAGGSLRLSCAASGTTFGAYAMGWYRQARGKERELVAVITWNDGSTYYADSVKGRFTISRDNAKNTVYLHMNSLKPEDTAVYYCAAEYAVSWSAFDWNYYYWGQGTQVTVSS”, the “polyreactivity (PSR sort gate)” value is on record as “high polyreactivity”.
The value for “QVQLVESGGGLVQAGGSLRLSCAASGTTFGYYAMGSYRQPPGKDREFVAAISSSGGSTYYPDSVKGRFTISRDNAKNTVYLQMNSLKPEDTAVYYCARVGFPGFYWGQGTEVTVSS” was “high polyreactivity”; that for “QVQLVESGGGLVQAGGSLRLSCAASGTTFLINAMGWYRQAPGKERELVATISSGGSTYYADSVKGRFTISRDNAKNNVYLQMNSLKPEDTAVYFCAADPDRTAYDYWGQGTQVTVSS” was “low polyreactivity”.
As for “QVQLVESGGGLVQAGGSLRLSCAASGTTFPAYAMGWYRQAPGKERELVAVINLSGSTYYADSVKGRFTISRDNAKNTVYLQMNSLKPEDTAVYYCNARQYDYYRYGYWGQGTQVTVSS”, the entry is “low polyreactivity”; as for “QVQLVESGGGLVQAGGSLRLSCAASGTTFRLYAMGWSIQAPGKERELVAAISRSGRTNYADSVKGSFTISRDNAKNTVYLQLNSLKPEDTAVYYCATVPGKCGDYWGQGTQVTVSS”, “high polyreactivity”.
The value for “QVQLVESGGGLVQAGGSLRLSCAASGTTFVSYSMGWYRQAPGKEREFVATISISGTSTYYADSVKGRFTISRDNAKNTVYLQMISLKPEDTAVYYCAARLRRRGATQFYRYDYWGQGTQVTVSS” was “high polyreactivity”.
Turning to “QVQLVESGGGLVQAGGSLRLSCAASGTTFVYYAMVWYRQAPGKERYLVAAITWNGGSTYYADSVKGRFTISRDNAKNTVYFQMNSLKPEDTAVYYCNAAFRAGAVYGYYWGQGTQVTVSS”, the “polyreactivity (PSR sort gate)” value is given as “high polyreactivity”.
As for “QVQLVESGGGLVQAGGSLRLSCAASGTTFWRYTMGWYRQAPGKERELVAAISTRGGSTTYADSVKGRFTISRDKAKNNVYLQMNSLKPEDTAVYYCNADGYRGYYGRNKSKYDYWGQGTQVTVSS”, the entry is “high polyreactivity”; as for “QVQLVESGGGLVQAGGSLRLSCAASGTTFYSNAMGWYRQAPGKEREFVAAISYSGGSTYYADSVKGRFTISRDNAKYTVYLQMNSLKPEDTAVYYCNARNWYYDGDYWVQGTQVTVSS”, “high polyreactivity”.
The value for “QVQLVESGGGLVQAGGSLRLSCAASGTTIKYYAMGWSRQAPGKERELVARITSDGGSTFYADSVKGRFTISRDNAKNTVYLQMNSLKPEDTAVYYCNTAYAFRHWWFYPMDYWGQGTQVTVSS” was “high polyreactivity”; that for “QVQLVESGGGLVQAGGSLRLSCAASGTTLGYYTMGWYRQAPGKERELVAAIDWSGGSTYYADSVKGRFTISRDNAKNTVYLQMNSLKPEDTAVYYCNAEPWDPFYSPGRGGMDYWGQGTQVNVSS” was “low polyreactivity”; that for “QVQLVESGGGLVQAGGSLRLSCAASGVIFESNAMAWYRQAPGKERELVAANTKRGGSTYYADSVKGRFTISRDNAKNTVYLQMKSLKPEDTAVYYCNALGYWRRVVDGFDNWGQGTQVTVSS” was “high polyreactivity”.
Consider “QVQLVESGGGLVQAGGSLRLSCAASGVIFKAYAMGWYRPAPGKERELVAAITSSGGRTYYADSVKGRFTISRDNAKNTVYLQMNSLKPEDSAVYYCNARGVLRTSLYRYDYWGQGTQLTVSS”, for which the “polyreactivity (PSR sort gate)” value is “high polyreactivity”.
The value for “QVQLVESGGGLVQAGGSLRLSCAASGVIFRRYAMGWYREAPGKERELVAAMSSSGGRTTYADSVNGRFTISRDNAKNTVYIQMNSLKPEDTAVYYCNADLWPGNHDGYWGQGTQVTVSS” was “low polyreactivity”.
The value for “QVQLVESGGGLVQAGGSLRLSCAASGVTFGGYAMGWYRQAPGKERELVAAISGSGGRTYYADSVKVRFTISRDNAMNTVYLQMNSLKPEDTAVYYCAADRASPYLENYWGQGTQVTVSS” was “low polyreactivity”; that for “QVQLVESGGGLVQAGGSLRLSCAASGYFDRNAMGWDRQAPGKERELVAAITVGGSTNYADSVKGRFTISRDNAKNSVYVQMNSLKPEDTAVYYCAADRGHTILHGGYWGQGTQVTVSS” was “low polyreactivity”.
On to “QVQLVESGGGLVQAGGSLRLSCAASGYIFAGYALGWYRQAPGKERELVARISRRGGITYYADSVKGRFTISRDNAKNTVYLQMNSLKPEDTAVYYCNGLGQSSSYDYWGQGTQVTVSS”, for which the “polyreactivity (PSR sort gate)” value is reported as “high polyreactivity”.
The value for “QVQLVESGGGLVQAGGSLRLSCAASGYIFAWYAMGWYRQAPGIVRELVAAISRSGGSTYYADSVKGRFTISRDNAKHTDYLQMNSLKPEDTAVYYCNAYSAYDEYDYWGQGTQVTVSS” was “high polyreactivity”; that for “QVQLVESGGGLVQAGGSLRLSCAASGYIFAYTAMGWYRQAPGKEREFVAVITRSDDSTYADSVKGRFTISRDNAKNTVYLQMNSLKPEDTAVYYCAAQPFVIDGGYRGDYWGQGTQVTVSS” was “low polyreactivity”; that for “QVQLVESGGGLVQAGGSLRLSCAASGYIFAYYAMGWYRQEPGKERELVADIRGRGGSTYYADSVKGRFTISRDNAKNTVYLQMNSLKTEDTAVYYCARRSPNPYSIYYYWGQGTQVTVSS” was “high polyreactivity”.
As for “QVQLVESGGGLVQAGGSLRLSCAASGYIFDIYAMGWYRQAPGKERELVAVITRSGGGTYYADSVKGRFTISRDNAKKTVYLQMNSLKPEDTAVYYCAAESYVYGGSDYDYWGQGTQVTVSS”, the entry is “low polyreactivity”; as for “QVQLVESGGGLVQAGGSLRLSCAASGYIFDRYAMGWSRPAPGKERELVAAISGRGGSTYYADSVKGRFTISLDNAKNTVYLQMNSLKPEDTAVYYCNALVQGKEYYWGQGTQVTVSS”, “high polyreactivity”.
The value for “QVQLVESGGGLVQAGGSLRLSCAASGYIFDRYAMGWYRPAPGKERELVAAISVGGGTTYYADSVKGRFTISRDNAKNTVYLQMNSLKPEDTAVYYCAARSDSYAPRRGYWGQGTQVTVSS” was “high polyreactivity”.
As for “QVQLVESGGGLVQAGGSLRLSCAASGYIFDYYDMGWYRQAPGKERELVAAINGSGGDTYYADSVKGRFTISRDNANNTVYLEMNSLKPEDTAVYYCAADLVYYSGWGYAFNYWGQGTQVNVSS”, the “polyreactivity (PSR sort gate)” value is listed as “high polyreactivity”.
The value for “QVQLVESGGGLVQAGGSLRLSCAASGYIFEEYDMGWYRQAPGKERELVAAISASGGSTYYADSVKGRFTISRDNAKNTVYLQMNSLKPEDTAVYYCAADAVREVYGSWDDYWGQGTQVTVSS” was “low polyreactivity”.
The value for “QVQLVESGGGLVQAGGSLRLSCAASGYIFEIYAMGWYRQAPGKERELVAAISTRGGRTYYADSVKGRFTISRDNAKNTVYLEMKSLKPEDTAVYYCARESSIVPYGYWGQGTQVTVSS” was “low polyreactivity”; that for “QVQLVESGGGLVQAGGSLRLSCAASGYIFGGYAMGWYRQATGKERELVPGISIGVGSTYYADSVKGRFTISRDNAKNTVYLQMNSLKPEDSAVYYCNRVSVGYDYWGQGTQVTVSS” was “low polyreactivity”.
As for “QVQLVESGGGLVQAGGSLRLSCAASGYIFGRNAMGWYRQAPGKERELVAVISSRGSRTYYADSVKGRFTISRDNAKNTVYLQMNSLKPEDTAVYYCAVRGVVNFDYWGQGTQVTVSS”, the entry is “high polyreactivity”.
In the case of “QVQLVESGGGLVQAGGSLRLSCAASGYIFGSNAMGWYRQAPGKDRELVAGISNNGGSTYYADSVKGRFTISRDKAKNTVYLQMNSLKPEDTAVYYCARDPNDDNSFPYDYWGQGTQVTVSS”, the “polyreactivity (PSR sort gate)” value is given as “low polyreactivity”.
As for “QVQLVESGGGLVQAGGSLRLSCAASGYIFGSYTMGWYRQAPGKERELVAGISRRGGGTYYADSVKGRFTMSRDNAKNNVYLQMNSLIPEDTAVYYCAAEVITIGLYRYGFWGQGTQVSVSS”, the entry is “high polyreactivity”; as for “QVQLVESGGGLVQAGGSLRLSCAASGYIFGSYVMGGYRQAPGKERELVAAITRIGASTYYADSVKGRFTISRDNAKNTVYLQMNSLKPEDTAVYYCATDQGGYYENDYWGQGTQVTVSS”, “low polyreactivity”.
As for “QVQLVESGGGLVQAGGSLRLSCAASGYIFGTDAMGRYRQAPGKERELVAAISSTGRTYYADSVKGRFTISRDNAKNTVYLQMNSLKPEDTAVYYCAADVRTPSEGYDYWGQGTQVTVSS”, the entry is “high polyreactivity”.
The value for “QVQLVESGGGLVQAGGSLRLSCAASGYIFGVNALGWYRQAPGKERELVAAIDSGSRTYYADSVKGRFTISRDNAKNTVYLQMNSLKPEDTAVYYFATTFYVSYGGGYYTIWYDYWGQGTQVTVSS” was “low polyreactivity”; that for “QVQLVESGGGLVQAGGSLRLSCAASGYIFGWNAMGWYRQAPGKERELVAAISSSGGNTYYADSVKGRFTISRDNAKNTVYLQMNSLKPEDTAVYYCARSYPYRYDYWGQGTQVTVSS” was “low polyreactivity”.
Consider “QVQLVESGGGLVQAGGSLRLSCAASGYIFGWYTMGWYRQAPGKERELVAAISGGGRTYYADSVKGRFTISRDNAKNTVYLQMNSLKPEDTAVYYCNDYSSYIKYDYWGQGTQVTVSS”, for which the “polyreactivity (PSR sort gate)” value is on record as “high polyreactivity”.
As for “QVQLVESGGGLVQAGGSLRLSCAASGYIFGYYAMGWYRQAPGQEREFVAAINWSGGSTYYADSVNGRFTISRDNAKNTVYLQMNSLKPEDTAVYYCARSYRSRVVYKFGYWGQGTQVTVSS”, the entry is “high polyreactivity”; as for “QVQLVESGGGLVQAGGSLRLSCAASGYIFGYYVMGWYRQAPGKERELVAAISGRGGRTYYADSVKGRFTISRDNAMNTVYLQMNSLKPEDTAVYYCAAADLPGTMYYWGQGTQVTVSS”, “high polyreactivity”.
As for “QVQLVESGGGLVQAGGSLRLSCAASGYIFGYYVMGWYRQAPGKERELVAAITGRGGSTYYADSVKGRFTISRDNAKNTVSLQMNSLKPEDTAVYYCAADATTYPYDPWHLYEIWEYYYWGQGTQVTVSS”, the entry is “low polyreactivity”; as for “QVQLVESGGGLVQAGGSLRLSCAASGYIFHDNAMGWYRQAPGKERELVAGITTGGSTYYADSVKGRFTISRDNAKYTVYLQMNSLKPEDTAVYYCAAKVWSRSFYKYYYWGQGTQVTVSS”, “high polyreactivity”.
For the sequence “QVQLVESGGGLVQAGGSLRLSCAASGYIFHRYAMGWYRQAPGKERELVAAISWRVTSTFYADSVKGRFTISRDNAKNTVYLQMNCLKPEDTAVYYCASVKWVGYKYWSSRKYDYWGQGTQVTVSW”, the “polyreactivity (PSR sort gate)” value is given as “high polyreactivity”.
As for “QVQLVESGGGLVQAGGSLRLSCAASGYIFHSYVMGWYRQAPGKERELVAAITSDDDSTFYADSVKGRFTISRDNAKNTVYLQMNSLKPEETGVYYCAADGYYQYDKDTYYSTSDYWGQGTQVTVSS”, the entry is “low polyreactivity”.
